What was measured:
CD40-His = biological target: T1, CD40-His (human, UniProt P25942 21-193); assay: bio-layer interferometry (Octet); ligand column: hCD40-his
T1 construct: Octet (biolayer interferometry) reagent; also called recombinant human CD40; not shown: His tag

[1] = biological target: T2, CSF1R-Fc (commercially available, single-sided control protein) (UniProt P07333 20-512, limits assumed); assay: SPR, BioRad ProteOn XPR 360
T2 construct: Recombinant control protein; not shown: Fc part of the bought protein; not described
Procedure: The binding affinity of the different domains of the hCSF1R-Fc-CD40L chimeric protein was measured by the surface plasmon resonance (SPR) using the BioRad ProteOn XPR 360 system. Specifically, the affinity of the chimeric protein for human CSF1 and CD40 was determined and compared to recombinant control proteins, and the results are shown in the Table below: […]

[2] = biological target: T3, murine CD40 overexpressed on CHO-K1 cells (CHOK1/CD40) (murine, UniProt P27512 20-289); assay: flow cytometry on CHOK1/CD40 cells; CHOK1/CD40 cells, flow cytometry
T3 construct: whole, on cells; also called mCD40
T3 sequence (looked up): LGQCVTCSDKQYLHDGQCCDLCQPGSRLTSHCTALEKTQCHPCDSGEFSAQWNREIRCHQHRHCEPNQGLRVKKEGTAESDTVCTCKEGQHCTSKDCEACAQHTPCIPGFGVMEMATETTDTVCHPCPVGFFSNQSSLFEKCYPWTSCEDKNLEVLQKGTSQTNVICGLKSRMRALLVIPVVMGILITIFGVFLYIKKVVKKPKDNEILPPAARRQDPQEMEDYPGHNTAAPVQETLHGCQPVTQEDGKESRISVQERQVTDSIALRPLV
Procedure: For cell binding assays, immortalized cell lines were engineered to stably express CD40 (CHOK1/CD40). Increasing concentrations of the murine CSF1R-Fc-CD40L chimeric protein were incubated with the over-expressing (CHOK1/CD40) cell line for 2 hours. Cells were collected, washed, and stained with antibodies for the detection of chimeric protein binding by flow cytometry.
As a negative control, there was no detectable binding to the parental (non-CD40 expressing) CHOK1 cell line.

T2 sequence (P07333 20-512 limits assumed): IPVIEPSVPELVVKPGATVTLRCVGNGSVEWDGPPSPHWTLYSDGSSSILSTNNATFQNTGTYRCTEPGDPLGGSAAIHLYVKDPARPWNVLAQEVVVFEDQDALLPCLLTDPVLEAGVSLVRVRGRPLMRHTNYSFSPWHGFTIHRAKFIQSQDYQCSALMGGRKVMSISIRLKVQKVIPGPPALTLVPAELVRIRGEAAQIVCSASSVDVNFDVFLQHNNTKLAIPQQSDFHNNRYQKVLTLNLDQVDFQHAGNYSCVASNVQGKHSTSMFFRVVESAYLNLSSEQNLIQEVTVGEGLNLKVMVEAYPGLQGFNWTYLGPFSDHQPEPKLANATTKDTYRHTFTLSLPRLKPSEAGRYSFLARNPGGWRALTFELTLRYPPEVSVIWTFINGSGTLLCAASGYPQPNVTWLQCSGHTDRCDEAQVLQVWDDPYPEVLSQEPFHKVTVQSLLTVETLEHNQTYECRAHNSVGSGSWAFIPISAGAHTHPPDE
T1 sequence (P25942 21-193 limits assumed): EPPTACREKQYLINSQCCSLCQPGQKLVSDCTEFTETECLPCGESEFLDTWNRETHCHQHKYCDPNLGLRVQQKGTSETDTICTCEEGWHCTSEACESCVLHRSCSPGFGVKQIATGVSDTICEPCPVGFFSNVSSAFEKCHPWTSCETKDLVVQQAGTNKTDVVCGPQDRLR

B1: CD40L-Fc (commercially available, single-sided control protein) (Fc fusion, UniProt P29965 113-261, looked up)
chain: MQKGDQNPQIAAHVISEASSKTTSVLQWAEKGYYTMSNNLVTLENGKQLTVKRQGLYYIYAQVTFCSNREASSQAPFIASLCLKSPGRFERILLRAANTHSSAKPCGQQSIHLGGVFELQPGASVFVNVTDPSQVSHGTGFTSFGLLKL
notes: Recombinant control protein; not shown: Fc part of the bought protein
Q: Which Kd (CD40-His) does the source give for B1 here?
A: 2.42 nM

B2: recombinant human CSF1 protein (ligand, UniProt P09603 33-190, looked up)
chain: EEVSEYCSHMIGSGHLQSLQRLIDSQMETSCQITFEFVDQEQLKDPVCYLKKAFLLVQDIMEDTMRFRDNTPNAIAIVQLQELSLRLKSCFTKDYEEHDKACVRTFYETPLQLLEKVKNVFNETKNLLDKDWNIFSKNCNNSFAECSSQDVVTKPDCN
notes: the construct is not described
Q: How did the Kd [1] turn out when B2 was run?
A: 0.275 nM

Q: And the koff [1]?
A: 0.000335 s⁻¹

Q: What about the kon [1] of the same binder?
A: 1.22e+06 M⁻¹ s⁻¹

B3: murine CSF1R-Fc-CD40L chimeric protein (Fc fusion)
chain (part 1 of 2): APVIEPSGPELVVEPGETVTLRCVSNGSVEWDGPISPYWTLDPESPGSTLTTRNATFKNTGTYRCTELEDPMAGSTTIHLYVKDPAHSWNLLAQEVTVVEGQEAVLPCLITDPALKDSVSLMREGGRQVLRKTVYFFSPWRGFIIRKAKVLDSNTYVCKTMVNGRESTSTGIWLKVNRVHPEPPQIKLEPSKLVRIRGEAAQIVCSATNAEVGFNVILKRGDTKLEIPLNSDFQDNYYKKVRALSLNAVDFQDAGIYSCVASNDVGTRTATMNFQVVESAYLNLTSEQSLLQEVSVGDSLILTVHADAYPSIQHYNWTYLGPFFEDQRKLEFITQRAIYRYTFKLFLNRVKASEAGQYFLMAQNKAGWNNLTFELTLRYPPEVSVTWMPVNGSDVLFCDVSGYPQPSVTWMECRGHTDRCDEAQALQVWNDTHPEVLSQKPFDKVIIQSQLPIGTLKHNMTYFCKTHNSVGNSSQYFRAVSLGQSKQLPDESLFTP
chain (part 2 of 2): HRRLDKVEEEVNLHEDFVFIKKLKRCNKGEGSLSLLNCEEMRRQFEDLVKDITLNKEEKKENSFEMQRGDEDPQIAAHVVSEANSNAASVLQWAKKGYYTMKSNLVMLENGKQLTVKREGLYYVYTQVTFCSNREPSSQRPFIVGLWLKPSSGSERILLKAANTHSSSQLCEQQSVHLGGVFELQAGASVFVNVTEASQVIHRVGFSSFGLLKL
notes: 'constructed as described above in the Detailed Description and in U.S. 62/464,002'; also called mCSF1R-Fc-CD40L; mCD115-Fc-CD40L; not shown: Fc linker
Q: B3 was tested. Which EC50 [2] did it give?
A: 91.1 nM

— patent US20190169249A1 (SHATTUCK LABS, published 2019)
